Results: the RNAGym collection of RNA variant scans (doi:10.1073/pnas.2313332121)
This sample holds only a part of the variants without activity.

B1: TPR 5TU (parent)
chain: GGAUCUUCUCGAUCUAACAAAAAAGACAAAUCUGCCACAAAGCUUGAGAGCAUCUUCGGAUGCAGAGGCGGCAGCCUUCGGUGGCGCGAUAGCGCCAACGUUCUCAACUAUGACACGCAAAACGCGUGCUCCGUUGAAUGGAGUUUAUCAUG

Variants of: B1
Assay: polymerase ribozyme fitness, log enrichment relative to wild type (log ratio); higher = more active; in vitro selection for triplet polymerase activity
Summary of the method: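 After PCR construction and transcription, each subunit's mutant library from a heterodimeric triplet polymerase ribozyme was annealed with a biotinylated primer, the partner subunit and triplets. Incubation was frozen, at −7 °C, and extended constructs were gel-excised, bound to streptavidin beads and amplified by RT-PCR, in one selection round done in triplicate. Fitness is the logarithm of a genotype's enrichment divided by that of the wild type, from inverse-variance-weighted replicate averages of Illumina-sequenced inputs and outputs. The base of the logarithm is 2, and genotypes needed ≥10 input reads and ≥1 read per output.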

Variant | polymerase ribozyme fitness (log ratio)
GGAUCUUCUCGAUCUAACAAAAAAGACAAAUCUGCCACAAAGCUUGAGAGCAUCUUCGGAUGCAGAGGCGGCAGCCUUUGGUGGUGCGAUAGCGCCAACGUUCUCAACUAUGACCCGCAAAACGCGUGCUCCGUUGAAUGGAGUUUAUCAUG | ≤ -4.2
GGAUCUUCUCGAUCUAACAAAAAAGACAAAUCUGCCACAAAGCUUGAGAGCAUCUUCGGAUGCAGAGGCGGCAGCCUUUGUUGGCGCGAUACCGCCAACGUUCUCAACUAUGACACGCAAAACGCGGGCUCCGUUGAAUGGAGUUUAUCAUG | ≤ -4.2
GGAUCUUCUCGAUCUAACAAAAAAGACAAAUCUGCCACAAAGCUUGAGAGCAUCUUCGGAUGCAGAGGCGGCAGCCUUUGGUGGCGCGAUAGAGCCAUCGUUCUCAACUAUGACACGCAAAUCGCGUGCUCCGUUGAAUGGAGUUUAUCAUG | -4
GGAUCUUCUCGAUCUAACAAAAAAGACAAAUCUGCCACAAAGCUUGAGAGCAUCUUCGGAUGCAGAGGCGGCAGCCUUGGGUGGCGCUAUAGCGCCAACGUUCUCAACUAUGACACGCAAAACGCGUGCUCCGCUGAAUGGUGUUUAUCAUG | ≤ -4.2
GGAUCUUCUCGAUCUAACAAAAAAGACAAAUCUGCCACAAAGCUUGAGAGCAUCUUCGGAUGCAGAGGCGGCAGCCUUAGGUGGCACGAUAGCGCCAACGUUCUCAACUAUGACACGCAAAACGCGUGCUCCGUUGAAUGGAGUUUAUCAUG | ≤ -4.2
GGAUCUUCUCGAUCUAACAAAAAAGACAAAUCUGCCACAAAGCUUGAGAGCAUCUUCGGAUGCAGAGGCGGCAGCCUUUGGUGGCGCGAUUGCGCCAACGUUCUCAACUAUGACACGCAAAACGAGUGCUCCGUUGAAUGGAGUUUAUCAUG | ≤ -4.2
GGAUCUUCUCGAUCUAACAAAAAAGACAAAUCUGCCACAAAGCUUGAGAGCAUCUUCGGAUGCAGAGGCGGCAGCCUUUGGUGGCGCGAUAGUGUCAACGUUCUCAACUAUGACACGCAAAACGCGUGCUCCGUUGAAUGGAGUUUAUCAUG | -4.08
GGAUCUUCUCGAUCUAACAAAAAAGACAAAUCUGCCACAAAGCUUGAGAGCAUCUUCGGAUGCAGAGGCGGCAGCCUUGGGUGGCGCGAUAGCGCCAACGUUCUCAACUAUGACACGCAAAACGCGUGCUCCGUUGAAUGGAGUUUAACAUG | ≤ -4.2
GGAUCUUCUCGAUCUAACAAAAAAGACAAAUCUGCCACAAAGCUUGAGAGCAUCUUCGGAUGCAGAGGCGGCAGCCUUUGGUGGCGCGAUAGCGCCAACGUUCUCAACUAUGACACGCAAUACGCGUGCUCCGUUGAAUGGAGUUUAUCAUG | -1.2
GGAUCUUCUCGAUCUAACAAAAAAGACAAAUCUGCCACAAAGCUUGAGAGCAUCUUCGGAUGCAGAGGCGGCAGCCUUUGGUGGCGCGAUAGCGCCAACGUUGUCAACUAUGACACGCAAAACGCGUGCUCCGUUGAAUGGAGUUUAUCAUG | ≤ -4.2
GGAUCUUCUCGAUCUAACAAAAAAGACAAAUCUGCCACAAAGCUUGAGAGCAUCUUCGGAUGCAGAGGCGGCAGCCUUUGGUGGCGCGAUAGCGCCGACGUUCUCAACUAUGACACGCAAAACGCGUGCUCCGUUGAAUGGAGUUUAUCAUG | -3.02
GGAUCUUCUCGAUCUAACAAAAAAGACAAAUCUGCCACAAAGCUUGAGAGCAUCUUCGGAUGCAGAGGCGGCAGCCUUUGGUGGCGGGAUAGCGCCAACGUUCUCAACUAUGACACGCAAAACGCGUGCUCCGUUGAAUGGAGUUUAUCAUG | -3.61
GGAUCUUCUCGAUCUAACAAAAAAGACAAAUCUGCCACAAAGCUUGAGAGCAUCUUCGGAUGCAGAGGCGGCAGCCUUGGGUGGCGUGAUAGCGCCAACUUUCUCAACUAUGACACGCAAAACGCGUGCUCCGUUGAAUGGAGUUUAUCAUG | -2.91
GGAUCUUCUCGAUCUAACAAAAAAGACAAAUCUGCCACAAAGCUUGAGAGCAUCUUCGGAUGCAGAGGCGGCAGCCUUAGGUGGCGCGAUAGCGCCAACGUUCUCAACUAUGACACGCAAAACGCGUGCUCCGUUGAACGGGGUUUAACAUG | ≤ -4.2
GGAUCUUCUCGAUCUAACAAAAAAGACAAAUCUGCCACAAAGCUUGAGAGCAUCUUCGGAUGCAGAGGCGGCAGCCUUUGGUGGCGCGAUAGCGCCAACGUUCUCAAGGAUGACACGCAAAACGCGUGCUCCGUUGAAGGGAGUCUAUCAUG | ≤ -4.2
GGAUCUUCUCGAUCUAACAAAAAAGACAAAUCUGCCACAAAGCUUGAGAGCAUCUUCGGAUGCAGAGGCGGCAGCCUUUGGUGGCGCGAUAGCGCCAACGUUCUCAACUAUGACACGCAAAACGCGUGCUCCGUUGAAUGGAGUUUAUCCUG | ≤ -4.2
GGAUCUUCUCGAUCUAACAAAAAAGACAAAUCUGCCACAAAGCUUGAGAGCAUCUUCGGAUGCAGAGGCGGCAGCCUUGGGUGGCGCGAUAGCGCCAUUGUUCUCAACUAUGACACGCAAAACGCGUGCUCCUUUGAAUGGAGUUUAUCAUG | ≤ -4.2
GGAUCUUCUCGAUCUAACAAAAAAGACAAAUCUGCCACAAAGCUUGAGAGCAUCUUCGGAUGCAGAGGCGGCAGCCUUGGGUGGCGCGAUAGCGCCAACGUUCUCAACUAUGACACGCAAAACGUGUGCUCCGUUGAAUGGCGUUUACCAGG | ≤ -4.2
GGAUCUUCUCGAUCUAACAAAAAAGACAAAUCUGCCACAAAGCUUGAGAGCAUCUUCGGAUGCAGAGGCGGCAGCCUUUGGUGGGGCGAUAGCGCCAACGGUCUCAACUAUGACACGCAAAACGCGUGCUCCGUUGAAUGGAGUUUAUCAUG | ≤ -4.2
